This is an account of results in patent publication US20050014193A1, “Identification of target-specific folding sites in peptides and proteins” (priority 2003, published 2005).

Broadly, the % Inhibition is the share of the control response that was lost under treatment.

Square brackets hold non-standard residues; d marks the D form. Ends that are not written are not given here. dChg = N[C@@H](C(=O)O)C1CCCCC1; Chg = N[C@H](C(=O)O)C1CCCCC1; Orn = NCCC[C@H](N)C(=O)O; Dap = NC[C@H](N)C(=O)O; Sar = CNCC(=O)O

One assay addresses T1, oxytocin receptor (Rattus norvegicus, UniProt P70536).
T1 construct: cell membranes prepared from rat uterus; from tissue; host or cells: rat uterus membranes
T1 sequence (P70536 1-388): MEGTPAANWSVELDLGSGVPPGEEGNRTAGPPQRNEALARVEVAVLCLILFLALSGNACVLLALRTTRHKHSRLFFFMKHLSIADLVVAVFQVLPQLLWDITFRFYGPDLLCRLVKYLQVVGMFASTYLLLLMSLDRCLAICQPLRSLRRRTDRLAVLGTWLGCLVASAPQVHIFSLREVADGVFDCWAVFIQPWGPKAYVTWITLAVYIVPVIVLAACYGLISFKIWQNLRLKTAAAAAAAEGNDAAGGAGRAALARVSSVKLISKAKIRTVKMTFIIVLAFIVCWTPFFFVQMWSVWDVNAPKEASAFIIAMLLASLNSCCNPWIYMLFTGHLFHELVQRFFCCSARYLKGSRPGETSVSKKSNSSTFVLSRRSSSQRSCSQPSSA
Nature of the assay: 3H-oxytocin binding inhibition, rat uterus cell membranes. The note with it: for activity at oxytocin receptor: within the Table 30 series; for % Inhibition at 1 μM Oxytocin Receptor (Table 30) / % Inhibition at 1 μM Oxytocin Receptor (Table 29): rat uterus membranes, Re-complexed. Here is the method:
The screening of metallopeptides for binding to oxytocin receptor was done using cell membranes prepared from rat uterus. […] The membrane preparations (10-50 μg/well) were incubated with […] ^3H-oxytocin in HEPES Buffer containing 0.2% bovine serum albumin along with a test compound (1 μM final assay concentration) for 2 hours at 4° C. Non-specific binding was determined by addition of 10^−6 M oxytocin instead of the test compound. After incubation, the membranes were filtered and washed three times with ice-cold PBS. The membranes were air-dried and punched directly into scintillation vials. After addition of the scintillation cocktail, the vials were capped and gently shaken for 12 hours to dissolve the radioactivity contained in the filters. The vials were then read for tritium counts in a scintillation counter. Specific binding was determined as the radioactivity in wells containing ^3H-oxytocin alone minus the radioactivity in wells containing 10^−6 M oxytocin. The assay was performed in triplicates. The activity profile for the test compounds were generated by their ability to inhibit specific binding of the radiotracer to its receptor.

For the next assay, the target named is T2, vasopressin-1 receptor (Rattus norvegicus, UniProt P30560).
T2 construct: cell membranes prepared from rat liver; from tissue; host or cells: rat liver membranes
The assay is described as follows: 3H-vasopressin-1 antagonist binding inhibition, rat liver cell membranes. The note with it: Re-complexed. The method, then: The screening of compounds for vasopressin-1 receptor was performed using cell membranes prepared from rat liver. The assay was essentially performed as described above for the oxytocin receptor assay. In this assay 2-4 nM ^3H-vasopressin-1 antagonist (obtained from Perkin Elemer-NEN Life Sciences) was used as the radiotracer and Arg^8-vasopressin (1 μM final concentration in the assay) was used to determine non-specific binding. The assay was performed in triplicates. Activity profile for the test compounds were generated by their ability to inhibit specific binding of the radiotracer to its receptor.

The target in the next assay is T3, angiotensin-II receptor (Homo sapiens, UniProt P30556).
T3 construct: cell membranes obtained from human neuroblastoma cells (KAN-TS); endogenous in cells; host or cells: KAN-TS human neuroblastoma cells (membranes)
T3 sequence (P30556 1-359): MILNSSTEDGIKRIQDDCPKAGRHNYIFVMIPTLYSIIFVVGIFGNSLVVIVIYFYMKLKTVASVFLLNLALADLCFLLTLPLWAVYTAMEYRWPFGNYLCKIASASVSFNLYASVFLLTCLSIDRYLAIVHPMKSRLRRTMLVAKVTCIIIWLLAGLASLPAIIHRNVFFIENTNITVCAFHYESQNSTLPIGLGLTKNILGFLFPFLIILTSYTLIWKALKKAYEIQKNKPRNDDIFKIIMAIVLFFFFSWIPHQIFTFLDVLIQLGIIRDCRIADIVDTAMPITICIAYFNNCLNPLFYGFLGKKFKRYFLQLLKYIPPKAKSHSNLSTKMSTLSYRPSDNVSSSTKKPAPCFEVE
Nature of the assay: 125I-Tyr4,Sar1,Ile8-Angiotensin II binding inhibition, human neuroblastoma (KAN-TS) cell membranes. The settings on record: for % Inhibition at 1 μM (Angiotensin Receptor): KAN-TS cell membranes, Re-complexed. Here is the method:
The screening of compounds for binding to the angiotensin-II receptor was performed using cell membranes obtained from human neuroblastoma cells (KAN-TS). The assay was performed in triplicates, generally as described in Example 4 for oxytocin, except for measurement of receptor bound radioactivity. For angiotensin, a radioiodinated tracer ligand was used (instead of a tritiated ligand), which radioiodinated tracer facilitated direct measurement of bound radioactivity using a gamma counter. A final 1-3 nM concentration of ^125I-Tyr^4, Sar^1, Ile^8-Angiotensin II ligand (obtained from Perkin Elemer-NEN Life Sciences) was used as radiotracer and angiotensin-II (1 μM final assay concentration) was used to measure non-specific binding. After filtration of the incubation medium, followed by washings, drying the filters and punching the filters into test tubes, the filters were counted for radioactivity in a gamma counter. An activity profile for the test compounds was generated by ability to inhibit specific binding of the radiotracer to its receptor.

T2 sequence (P30560 whole entry): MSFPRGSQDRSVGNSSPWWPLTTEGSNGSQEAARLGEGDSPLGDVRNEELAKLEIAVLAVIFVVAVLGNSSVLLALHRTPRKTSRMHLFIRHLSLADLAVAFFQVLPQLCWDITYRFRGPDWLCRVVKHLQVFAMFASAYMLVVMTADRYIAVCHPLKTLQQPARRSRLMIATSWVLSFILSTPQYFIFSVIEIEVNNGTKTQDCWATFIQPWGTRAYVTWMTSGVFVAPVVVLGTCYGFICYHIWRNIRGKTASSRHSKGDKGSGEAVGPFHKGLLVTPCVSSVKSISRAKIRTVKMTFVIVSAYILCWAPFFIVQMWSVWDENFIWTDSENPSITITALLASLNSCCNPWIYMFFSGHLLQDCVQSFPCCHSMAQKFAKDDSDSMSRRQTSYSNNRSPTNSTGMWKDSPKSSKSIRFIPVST

As for “Ala-Tyr-Ile-Gln-Asn-Cys-Ala-Pro-Leu-Gly-NH2 (AYIQNCAPLG-NH2; not fully specified (bridges); printed as Ala-Tyr-Ile-Gln-Asn-Cys-Ala-Pro-Leu-Gly-NH2; also: oxorhenium(V) N3S1 metal chelate (Re=O)) [SEQ ID NO:155]”, in the assay with oxytocin receptor, the “activity at oxytocin receptor” value is “maximal activity”. In the assay with vasopressin-1 receptor, the “% Inhibition at 1 μM Vasopressin-1 Receptor (Table 30)” value is 0%.

Regarding “Sar-Arg-Val-Tyr-Ile-His-Cys-Gly-Thr ([Sar]RVYIHCGT; not fully specified (bridges); printed as Sar-Arg-Val-Tyr-Ile-His-Cys-Gly-Thr; also: oxorhenium(V) N3S1 metal chelate (Re=O)) [SEQ ID NO:166]”, the “percent inhibition at angiotensin receptor compared” value with angiotensin-II receptor (Gly for Pro substitution) is “significantly less than in SEQ ID NO:161”. Turning to “Ala-Tyr-Ile-Gln-Asn-Ala-Pro-Leu-Gly-Cys-NH2 (AYIQNAPLGC-NH2; not fully specified (bridges); printed as Ala-Tyr-Ile-Gln-Asn-Ala-Pro-Leu-Gly-Cys-NH2; also: oxorhenium(V) N3S1 metal chelate (Re=O)) [SEQ ID NO:149]”, the “% Inhibition at 1 μM Oxytocin Receptor (Table 30)” value with oxytocin receptor was determined as 6%. The “% Inhibition at 1 μM Vasopressin-1 Receptor (Table 30)” value with vasopressin-1 receptor was determined as 0%. With “Ala-Tyr-Ile-Gln-Asn-Ala-Ala-Cys-Leu-Gly-NH2 (AYIQNAACLG-NH2; not fully specified (bridges); printed as Ala-Tyr-Ile-Gln-Asn-Ala-Ala-Cys-Leu-Gly-NH2; also: oxorhenium(V) N3S1 metal chelate (Re=O)) [SEQ ID NO:152]”, the “% Inhibition at 1 μM Oxytocin Receptor (Table 30)” value with oxytocin receptor amounted to 0%. Besides, the “% Inhibition at 1 μM Vasopressin-1 Receptor (Table 30)” value in the assay with vasopressin-1 receptor was 1%. For the substance “Sar-Arg-Val-Tyr-Ile-His-Gly-Cys-Thr ([Sar]RVYIHGCT; not fully specified (bridges); printed as Sar-Arg-Val-Tyr-Ile-His-Gly-Cys-Thr; also: oxorhenium(V) N3S1 metal chelate (Re=O)) [SEQ ID NO:160]”, in the assay with angiotensin-II receptor, the “% Inhibition at 1 μM (Angiotensin Receptor)” value stood at 5%. Turning to [Chg][dW]CIT[Dap]AP[Orn]-NH2, the “% Inhibition at 1 μM Oxytocin Receptor (Table 29)” value on oxytocin receptor stood at 0%. Further, the “% Inhibition at 1 μM Vasopressin-1 Receptor (Table 29)” value on vasopressin-1 receptor stood at 0%.

Turning to “Caca-D-Trp-Ile-Thr-Dap-Ala-Ala-Orn-Cys-NH2”, the “% Inhibition at 1 μM Oxytocin Receptor (Table 29)” value on oxytocin receptor was 0%.

As to “Sar-Arg-Val-Cys-Tyr-Ile-His-Pro-Thr ([Sar]RVCYIHPT; not fully specified (bridges); printed as Sar-Arg-Val-Cys-Tyr-Ile-His-Pro-Thr; also: oxorhenium(V) N3S1 metal chelate (Re=O)) [SEQ ID NO:164]”, the “% Inhibition at 1 μM (Angiotensin Receptor)” value in the assay with angiotensin-II receptor stood at 1%. As to “Ala-Tyr-Cys-Ile-Gln-Asn-Ala-Pro-Leu-Gly-NH2 (AYCIQNAPLG-NH2; not fully specified (bridges); printed as Ala-Tyr-Cys-Ile-Gln-Asn-Ala-Pro-Leu-Gly-NH2; also: oxorhenium(V) N3S1 metal chelate (Re=O)) [SEQ ID NO:158]”, the “% Inhibition at 1 μM Oxytocin Receptor (Table 30)” value with oxytocin receptor came to 6%. Also, the “% Inhibition at 1 μM Vasopressin-1 Receptor (Table 30)” value with vasopressin-1 receptor is 1%.

As for “Caca-D-Trp-Ile-Cys-Thr-Dap-Ala-Pro-Orn-NH2”, the “% Inhibition at 1 μM Oxytocin Receptor (Table 29)” value on oxytocin receptor was determined as 0%. With “Ala-Tyr-Ile-Gln-Cys-Asn-Ala-Pro-Leu-Gly-NH2 (AYIQCNAPLG-NH2; not fully specified (bridges); printed as Ala-Tyr-Ile-Gln-Cys-Asn-Ala-Pro-Leu-Gly-NH2; also: oxorhenium(V) N3S1 metal chelate (Re=O)) [SEQ ID NO:156]”, the “activity at oxytocin receptor” value in the assay with oxytocin receptor was “also active”. The “% Inhibition at 1 μM Vasopressin-1 Receptor (Table 30)” value with vasopressin-1 receptor was found to be 0%.

Regarding “Ala-Tyr-Ile-Gln-Asn-Ala-Cys-Ala-Leu-Gly-NH2 (AYIQNACALG-NH2; not fully specified (bridges); printed as Ala-Tyr-Ile-Gln-Asn-Ala-Cys-Ala-Leu-Gly-NH2; also: oxorhenium(V) N3S1 metal chelate (Re=O)) [SEQ ID NO:154]”, the “activity at oxytocin receptor” value with oxytocin receptor was “also active”. Further, the “% Inhibition at 1 μM Vasopressin-1 Receptor (Table 30)” value with vasopressin-1 receptor is reported as 0%. Take “Ala-Tyr-Ile-Gln-Asn-Ala-Ala-Leu-Cys-Gly-NH2 (AYIQNAALCG-NH2; not fully specified (bridges); printed as Ala-Tyr-Ile-Gln-Asn-Ala-Ala-Leu-Cys-Gly-NH2; also: oxorhenium(V) N3S1 metal chelate (Re=O)) [SEQ ID NO:151]”: the “% Inhibition at 1 μM Oxytocin Receptor (Table 30)” value with oxytocin receptor was determined as 0%. The “% Inhibition at 1 μM Vasopressin-1 Receptor (Table 30)” value with vasopressin-1 receptor is listed as 0%. “Caca-D-Trp-Ile-Thr-Dap-Ala-Cys-Pro-Orn-NH2”: the “% Inhibition at 1 μM Oxytocin Receptor (Table 29)” value on oxytocin receptor turned out to be 0%. The “% Inhibition at 1 μM Vasopressin-1 Receptor (Table 29)” value at vasopressin-1 receptor is 0%.

For “Ala-Tyr-Ile-Cys-Gln-Asn-Ala-Pro-Leu-Gly-NH2 (AYICQNAPLG-NH2; not fully specified (bridges); printed as Ala-Tyr-Ile-Cys-Gln-Asn-Ala-Pro-Leu-Gly-NH2; also: oxorhenium(V) N3S1 metal chelate (Re=O)) [SEQ ID NO:157]”, the “% Inhibition at 1 μM Oxytocin Receptor (Table 30)” value with oxytocin receptor is reported as 0%. Besides, in the assay with vasopressin-1 receptor, the “% Inhibition at 1 μM Vasopressin-1 Receptor (Table 30)” value is listed as 0%. Regarding “Caca-D-Trp-Ile-Thr-Dap-Cys-Ala-Pro-Orn-NH2”, the “% Inhibition at 1 μM Oxytocin Receptor (Table 29)” value at oxytocin receptor was 9%. Turning to “Ala-Tyr-Ile-Gln-Asn-Ala-Ala-Leu-Gly-Cys-NH2 (AYIQNAALGC-NH2; not fully specified (bridges); printed as Ala-Tyr-Ile-Gln-Asn-Ala-Ala-Leu-Gly-Cys-NH2; also: oxorhenium(V) N3S1 metal chelate (Re=O)) [SEQ ID NO:150]”, the “% Inhibition at 1 μM Oxytocin Receptor (Table 30)” value with oxytocin receptor turned out to be 0%. In the assay with vasopressin-1 receptor, the “% Inhibition at 1 μM Vasopressin-1 Receptor (Table 30)” value is given as 0%. For “Caca-D-Trp-Ile-Thr-Dap-Ala-Cys-Ala-Orn-NH2”, the “% Inhibition at 1 μM Oxytocin Receptor (Table 29)” value at oxytocin receptor amounted to 0%. In addition, the “% Inhibition at 1 μM Vasopressin-1 Receptor (Table 29)” value at vasopressin-1 receptor was found to be 0%. Consider “Pmp-D-Trp-Cys-Ile-Thr-Dap-Ala-Pro-Orn-NH2”, for which the “% Inhibition at 1 μM Oxytocin Receptor (Table 29)” value on oxytocin receptor is 0%. “Ala-Tyr-Ile-Gln-Asn-Ala-Cys-Pro-Leu-Gly-NH2 (AYIQNACPLG-NH2; not fully specified (bridges); printed as Ala-Tyr-Ile-Gln-Asn-Ala-Cys-Pro-Leu-Gly-NH2; also: oxorhenium(V) N3S1 metal chelate (Re=O)) [SEQ ID NO:153]”: the “% Inhibition at 1 μM Oxytocin Receptor (Table 30)” value with oxytocin receptor was 2%. For the same substance, the “% Inhibition at 1 μM Vasopressin-1 Receptor (Table 30)” value with vasopressin-1 receptor is given as 0%.

For “Caca-D-Trp-Ile-Thr-Dap-Ala-Ala-Cys-Orn-NH2”, the “% Inhibition at 1 μM Oxytocin Receptor (Table 29)” value at oxytocin receptor was 0%. Besides, the “% Inhibition at 1 μM Vasopressin-1 Receptor (Table 29)” value on vasopressin-1 receptor was found to be 0%. Turning to [dChg][dW]CIT[Dap]AP[Orn]-NH2, at oxytocin receptor, the “% Inhibition at 1 μM Oxytocin Receptor (Table 29)” value was determined as 0%. In addition, on vasopressin-1 receptor, the “% Inhibition at 1 μM Vasopressin-1 Receptor (Table 29)” value stood at 8%. With “Caca-D-Trp-Ile-Thr-Cys-Dap-Ala-Pro-Orn-NH2”, the “% Inhibition at 1 μM Oxytocin Receptor (Table 29)” value at oxytocin receptor is 0%. Moreover, the “% Inhibition at 1 μM Vasopressin-1 Receptor (Table 29)” value on vasopressin-1 receptor came to 0%.
